Consider ten substances from article PMC11036296.

This experiment concerns the target Patched 1 (Ptch1) receptor (mouse (endogenous in C3H10T1/2)) (UniProt Q61115).
UniProt Q61115, sequence (Q61115 whole entry): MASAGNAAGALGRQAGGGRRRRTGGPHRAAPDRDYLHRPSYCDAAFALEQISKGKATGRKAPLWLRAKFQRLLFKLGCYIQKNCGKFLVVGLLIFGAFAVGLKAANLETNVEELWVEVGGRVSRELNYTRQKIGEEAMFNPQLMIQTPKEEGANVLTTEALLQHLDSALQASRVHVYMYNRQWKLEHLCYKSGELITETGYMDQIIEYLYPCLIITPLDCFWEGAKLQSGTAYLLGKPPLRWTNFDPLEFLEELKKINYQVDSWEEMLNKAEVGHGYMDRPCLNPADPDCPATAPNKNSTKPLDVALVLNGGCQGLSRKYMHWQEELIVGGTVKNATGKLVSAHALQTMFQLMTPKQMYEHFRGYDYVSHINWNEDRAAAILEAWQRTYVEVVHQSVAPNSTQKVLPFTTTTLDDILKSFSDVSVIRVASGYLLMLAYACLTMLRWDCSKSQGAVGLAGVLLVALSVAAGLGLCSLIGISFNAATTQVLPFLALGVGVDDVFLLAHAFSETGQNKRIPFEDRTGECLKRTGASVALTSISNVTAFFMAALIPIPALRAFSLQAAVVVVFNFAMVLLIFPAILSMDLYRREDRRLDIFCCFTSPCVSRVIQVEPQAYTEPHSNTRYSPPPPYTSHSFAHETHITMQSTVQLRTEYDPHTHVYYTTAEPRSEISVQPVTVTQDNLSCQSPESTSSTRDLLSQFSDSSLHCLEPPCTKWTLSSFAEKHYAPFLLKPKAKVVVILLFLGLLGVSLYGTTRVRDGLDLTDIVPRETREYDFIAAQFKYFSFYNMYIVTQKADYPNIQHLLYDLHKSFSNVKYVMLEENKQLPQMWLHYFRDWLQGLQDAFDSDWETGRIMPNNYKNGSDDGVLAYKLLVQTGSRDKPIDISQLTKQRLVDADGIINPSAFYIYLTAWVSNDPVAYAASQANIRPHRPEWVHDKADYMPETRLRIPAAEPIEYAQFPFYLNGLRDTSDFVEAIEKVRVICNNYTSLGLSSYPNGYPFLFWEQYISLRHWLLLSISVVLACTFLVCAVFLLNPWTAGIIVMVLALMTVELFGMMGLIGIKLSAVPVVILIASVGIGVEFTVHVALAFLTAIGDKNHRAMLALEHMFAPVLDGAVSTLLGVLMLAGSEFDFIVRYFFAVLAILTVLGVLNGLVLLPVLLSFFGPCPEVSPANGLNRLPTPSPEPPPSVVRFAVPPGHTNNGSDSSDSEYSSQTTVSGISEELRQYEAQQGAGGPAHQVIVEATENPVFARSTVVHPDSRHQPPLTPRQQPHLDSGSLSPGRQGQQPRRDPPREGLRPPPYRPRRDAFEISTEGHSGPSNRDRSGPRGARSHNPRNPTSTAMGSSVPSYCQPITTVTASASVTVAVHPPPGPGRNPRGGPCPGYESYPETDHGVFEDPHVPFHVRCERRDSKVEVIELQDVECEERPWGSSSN
The substance “^C25S;Δ26–32Shh^C (from UniProt Q62226 25-198) (ligand)” registered an Alp1 activity of C3H10T1/2 cells (differentiation into osteoblasts) of 1.26 au.
In turn, “^C25SShh^C, unpalmitoylated cholesteroylated soluble Shh (from UniProt Q62226 25-198) (ligand)” registered an Alp1 activity of C3H10T1/2 cells (differentiation into osteoblasts) of 1.71 au and an Alp1 activity of C3H10T1/2 cells (differentiation into osteoblasts), with the Shh-neutralising antibody 5E1 (1 µg/mL) of 0.21 au.
Taken in the same sequence, the figures for “Shh^C, soluble depalmitoylated (N-terminally processed), C-cholesteroylated Sonic hedgehog released in the presence of 10% serum (ligand)” were 1.5 au and 0.26 au.
The substance “^C25S;Δ26–37Shh^C (from UniProt Q62226 25-198) (ligand)” yielded an Alp1 activity of C3H10T1/2 cells (differentiation into osteoblasts) of 0.46 au.
On the same count and under the same terms, as for “^C25S;Δ26–31Shh^C (from UniProt Q62226 25-198) (ligand)”, the figure is 1.41 au; as for “^C25S;Δ26–33Shh^C (from UniProt Q62226 25-198) (ligand)”, 1.65 au; as for “^C25S;Δ26–34Shh^C (from UniProt Q62226 25-198) (ligand)”, 0.7 au.
On the same count and under the same terms, for “^C25S;Δ26–38Shh^C (from UniProt Q62226 25-198) (ligand)” the value was 0.36 au; for “^C25S;Δ26–35Shh^C (from UniProt Q62226 25-198) (ligand)”, 0.38 au.
In the case of “^C25S;Δ26–36Shh^C (from UniProt Q62226 25-198) (ligand)”, the Alp1 activity of C3H10T1/2 cells (differentiation into osteoblasts) was found to be 0.39 au.
